Experimental data taken from PMC10290117 (2023).
Numbered stars: 1 amine (or outer) side, 2 acyl side, 3 side chain; on linkers, the order of the positions; unused ones are H or OH. Square brackets hold non-standard residues; d marks the D form. Ends that are not written are not given here. OSE = (2S)-2-amino-3-sulfooxy-propanoic acid, sulfo-serine, O=C([C@H](COS(=O)(=O)O)N[*:1])[*:2]; Abu(4-PO3H2) = N[C@@H](CCP(=O)(O)O)C(=O)O; pS = N[C@@H](COP(=O)(O)O)C(=O)O

T1: HLA-B*0702, biotinylated recombinant HLA class I molecule of the Alpha assay (human, biotin)
T1 chain: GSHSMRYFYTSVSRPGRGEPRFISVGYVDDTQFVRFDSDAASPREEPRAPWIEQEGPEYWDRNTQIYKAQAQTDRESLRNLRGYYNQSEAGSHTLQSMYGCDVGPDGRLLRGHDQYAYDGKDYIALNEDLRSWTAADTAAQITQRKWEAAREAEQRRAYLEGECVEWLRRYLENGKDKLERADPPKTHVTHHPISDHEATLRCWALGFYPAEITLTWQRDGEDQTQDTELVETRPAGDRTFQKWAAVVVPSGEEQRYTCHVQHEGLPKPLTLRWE


Target: T1, HLA-B*0702, biotinylated recombinant …

Binder | Kd
EPR[pS]PSHSM [pMLL_(747–755) phosphopeptide EPR(pS)PSHSM] | 56.7 nM
EPR[Abu(4-PO3H2)]PSHSM [E7P-MLL_(747–755) peptide EPR(E7P)PSHSM] | 33.9 nM
LPA[pS]PAHQL [pDOT1L_(998–1006) phosphopeptide LPA(pS)PAHQL] | 309 nM
EPR[OSE]PSHSM [OSE-MLL_(747–755) peptide EPR(OSE)PSHSM] | 26.2 nM
EPRSPSHSM [MLL_(747–755) peptide EPRSPSHSM] | 27 nM
LPASPAHQL [DOT1L_(998–1006) peptide LPASPAHQL] | 54.3 nM
